The record followed here is paper PMC4321713.

The experiment deals with Cnidoin fragment (residues 150 to 419) with N-terminal ybbR tag and C-terminal type I dockerin-histidine tag (Hydra magnipapillata | not stated). Nature of the experiment: AFM single molecule force spectroscopy; Cnidoin-dockerin construct attached covalently by its ybbR tag to a coenzyme A glass surface; CBM A2C-Cohesin on the cantilever tip; 25 mM Tris, 72 mM NaCl, pH 7.2, 1 mM CaCl2, 10 mM DTT; pulling speeds 200 nm/s to 6,400 nm/s.

On to “CBM A2C-Cohesin from Clostridium thermocellum (domain or fragment)”, for which the rupture force came to 100 pN.
